# Changes are numbered by the printed parent chain. In names and notes the source's numbering stands.
# T1: EsCas13d, nuclease-dead (Eubacterium siraeum, UniProt B0MS50, R295A;H300A;R849A;H854A)
# T1 sequence: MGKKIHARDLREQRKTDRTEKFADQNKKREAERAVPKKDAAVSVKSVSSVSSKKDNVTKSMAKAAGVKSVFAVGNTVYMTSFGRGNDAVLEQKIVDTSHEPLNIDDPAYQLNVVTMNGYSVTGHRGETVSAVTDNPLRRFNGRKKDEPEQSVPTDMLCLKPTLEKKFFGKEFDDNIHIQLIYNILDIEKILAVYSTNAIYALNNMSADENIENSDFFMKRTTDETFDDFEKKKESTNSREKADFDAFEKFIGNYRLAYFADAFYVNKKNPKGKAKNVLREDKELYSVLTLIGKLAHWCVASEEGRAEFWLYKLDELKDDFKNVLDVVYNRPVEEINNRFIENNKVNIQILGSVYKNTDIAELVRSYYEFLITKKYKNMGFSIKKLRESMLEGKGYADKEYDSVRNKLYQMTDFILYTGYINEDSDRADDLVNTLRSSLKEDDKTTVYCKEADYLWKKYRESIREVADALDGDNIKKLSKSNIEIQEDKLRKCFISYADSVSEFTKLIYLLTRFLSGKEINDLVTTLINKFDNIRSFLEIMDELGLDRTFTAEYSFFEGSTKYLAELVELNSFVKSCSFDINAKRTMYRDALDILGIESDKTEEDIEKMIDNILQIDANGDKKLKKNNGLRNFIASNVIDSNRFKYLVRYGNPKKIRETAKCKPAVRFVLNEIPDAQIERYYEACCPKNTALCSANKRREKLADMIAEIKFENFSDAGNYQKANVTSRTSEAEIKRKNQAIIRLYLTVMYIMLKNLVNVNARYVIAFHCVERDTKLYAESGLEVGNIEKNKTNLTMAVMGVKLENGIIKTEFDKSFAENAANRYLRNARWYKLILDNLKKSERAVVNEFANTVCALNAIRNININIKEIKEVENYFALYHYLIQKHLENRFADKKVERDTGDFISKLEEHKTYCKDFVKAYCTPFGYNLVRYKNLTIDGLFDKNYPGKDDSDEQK
# B1: target 2 MT 5'PFS GAU 3'PFS ACA (mixed)
# RNA 1: CACCCGUGCAAAAUUGCAGGGGUCUAAAACCUUCUCCAAAUUGUUUCAUCCU
# RNA 2: GGGAAUGGAUCCACAUCUACGAAUUCGAUAGGAUGAAACAAUUUGGAGAAGACAAGAUCGGAAGAGCACACGU
# B2: target 2 MT 5'PFS GAU 3'PFS ACC (mixed)
# RNA 1: B1 RNA 1
# RNA 2: B1 RNA 2 with A54C
# B3: target 2 MT 5'PFS CUA 3'PFS CCU (mixed)
# RNA 1: B1 RNA 1
# RNA 2: B1 RNA 2 with G27C, A28U, U29A, A52C, A54U
# B4: target 2 MT 5'PFS GAU 3'PFS ACG (mixed)
# RNA 1: B1 RNA 1
# RNA 2: B1 RNA 2 with A54G
# B5: target 2 MT 5'PFS CCU 3'PFS UCC (mixed)
# RNA 1: B1 RNA 1
# RNA 2: B1 RNA 2 with G27C, A28C, A52U, A54C
# B6: target 1 C6U,A16U (mixed)
# RNA 1: CACCCGUGCAAAAAUGCAGGGGUCUAAAACUGAGCGGAUAACCUCUCUAUGG
# RNA 2: GGGAAUGGAUCCACAUCUACGAAUUCGUACCAUAGUGAGGUUAUCUGCUCACCGAGAUCGGAAGAGCACACGU
# B7: target 2 MT 5'PFS GUU 3'PFS UUC (mixed)
# RNA 1: B1 RNA 1
# RNA 2: B1 RNA 2 with A28U, A52U, C53U, A54C
# B8: target 2 MT 5'PFS CAU 3'PFS CUC (mixed)
# RNA 1: B1 RNA 1
# RNA 2: B1 RNA 2 with G27C, A52C, C53U, A54C
# B9: target 2 MT 5'PFS AUU 3'PFS UCU (mixed)
# RNA 1: B1 RNA 1
# RNA 2: B1 RNA 2 with G27A, A28U, A52U, A54U
# B10: target 2 MT 5'PFS GUU 3'PFS UUU (mixed)
# RNA 1: B1 RNA 1
# RNA 2: B1 RNA 2 with A28U, A52U, C53U, A54U
# B11: target 2 MT 5'PFS UAC 3'PFS AAC (mixed)
# RNA 1: B1 RNA 1
# RNA 2: B1 RNA 2 with G27U, U29C, C53A, A54C
# B12: target 2 MT 5'PFS UAC 3'PFS AAA (mixed)
# RNA 1: B1 RNA 1
# RNA 2: B1 RNA 2 with G27U, U29C, C53A
# B13: target 2 MT 5'PFS UAC 3'PFS AAG (mixed)
# RNA 1: B1 RNA 1
# RNA 2: B1 RNA 2 with G27U, U29C, C53A, A54G
# B14: target 2 MT 5'PFS CAU 3'PFS CUG (mixed)
# RNA 1: B1 RNA 1
# RNA 2: B1 RNA 2 with G27C, A52C, C53U, A54G
# B15: target 2 MT 5'PFS GUG 3'PFS UCU (mixed)
# RNA 1: B1 RNA 1
# RNA 2: B1 RNA 2 with A28U, U29G, A52U, A54U
# B16: target 2 MT 5'PFS UAC 3'PFS AAU (mixed)
# RNA 1: B1 RNA 1
# RNA 2: B1 RNA 2 with G27U, U29C, C53A, A54U
# B17: target 1 del7,del16 (mixed)
# RNA 1: B6 RNA 1
# RNA 2: GGGAAUGGAUCCACAUCUACGAAUUCGUACCAUAGGAGGUUAUCGCUCACCGAGAUCGGAAGAGCACACGU
# B18: target 2 MT 5'PFS GUG 3'PFS UCA (mixed)
# RNA 1: B1 RNA 1
# RNA 2: B1 RNA 2 with A28U, U29G, A52U
# B19: target 2 MT 5'PFS GUG 3'PFS UCC (mixed)
# RNA 1: B1 RNA 1
# RNA 2: B1 RNA 2 with A28U, U29G, A52U, A54C
# B20: target 2 MT 5'PFS UUC 3'PFS UAC (mixed)
# RNA 1: B1 RNA 1
# RNA 2: B1 RNA 2 with G27U, A28U, U29C, A52U, C53A, A54C
# B21: target 2 MT 5'PFS GUG 3'PFS UCG (mixed)
# RNA 1: B1 RNA 1
# RNA 2: B1 RNA 2 with A28U, U29G, A52U, A54G
# B22: target 2 MT 5'PFS CGC 3'PFS UUG (mixed)
# RNA 1: B1 RNA 1
# RNA 2: B1 RNA 2 with G27C, A28G, U29C, A52U, C53U, A54G
# B23: target 2 MT 5'PFS AAC 3'PFS AAA (mixed)
# RNA 1: B1 RNA 1
# RNA 2: B1 RNA 2 with G27A, U29C, C53A
# B24: target 2 MT 5'PFS ACA 3'PFS UAU (mixed)
# RNA 1: B1 RNA 1
# RNA 2: B1 RNA 2 with G27A, A28C, U29A, A52U, C53A, A54U
# B25: target 2 MT 5'PFS ACA 3'PFS UAA (mixed)
# RNA 1: B1 RNA 1
# RNA 2: B1 RNA 2 with G27A, A28C, U29A, A52U, C53A
# B26: target 2 MT 5'PFS ACA 3'PFS UAC (mixed)
# RNA 1: B1 RNA 1
# RNA 2: B1 RNA 2 with G27A, A28C, U29A, A52U, C53A, A54C
# B27: target 2 MT 5'PFS UAC 3'PFS UGC (mixed)
# RNA 1: B1 RNA 1
# RNA 2: B1 RNA 2 with G27U, U29C, A52U, C53G, A54C
# B28: target 1 A18C,U19A (mixed)
# RNA 1: B6 RNA 1
# RNA 2: B6 RNA 2 with U33A, A34C, U36A, U46C
# B29: target 2 MT 5'PFS AUC 3'PFS CUA (mixed)
# RNA 1: B1 RNA 1
# RNA 2: B1 RNA 2 with G27A, A28U, U29C, A52C, C53U
# B30: target 2 MT 5'PFS CGC 3'PFS UUA (mixed)
# RNA 1: B1 RNA 1
# RNA 2: B1 RNA 2 with G27C, A28G, U29C, A52U, C53U
# B31: target 2 MT 5'PFS AUC 3'PFS CUC (mixed)
# RNA 1: B1 RNA 1
# RNA 2: B1 RNA 2 with G27A, A28U, U29C, A52C, C53U, A54C
# B32: target 2 MT 5'PFS AUC 3'PFS CUU (mixed)
# RNA 1: B1 RNA 1
# RNA 2: B1 RNA 2 with G27A, A28U, U29C, A52C, C53U, A54U
# B33: target 2 MT 5'PFS AGA 3'PFS CAC (mixed)
# RNA 1: B1 RNA 1
# RNA 2: B1 RNA 2 with G27A, A28G, U29A, A52C, C53A, A54C
# Target: T1, EsCas13d, nuclease-dead
# Test: crRNA (strand 1, pre-loaded); Mg2+; 40 mM Tris-HCl pH 7.5, 150 mM NaCl, 6 mM MgCl2, 1 mM DTT, 0.1% Tween-20, 0.2 mg/ml BSA; 25 C; 10 min per concentration, then washed
# Conditions: tags: His6-TwinStrep-SUMO cleaved; N-terminal SNAP kept (SNAP-Surface 488); label: 3' end held by stalled T7 RNA polymerase
row,Binder,Kd
1,B1,10.6 ± 1.6 nM
2,B2,17.7 ± 3.4 nM
3,B3,~49 nM
4,B4,17.2 ± 2.2 nM
5,B5,1.74 ± 0.18 nM
6,B6,37.1 ± 2.6 nM
7,B7,31 ± 5 nM
8,B8,6.8 ± 0.8 nM
9,B9,10.7 ± 0.6 nM
10,B10,51 ± 11 nM
11,B11,11 ± 4 nM
12,B12,6 ± 1.4 nM
13,B13,5.8 ± 1 nM
14,B14,5.4 ± 0.8 nM
15,B15,18.9 ± 1.8 nM
16,B16,10 ± 4 nM
17,B17,45 ± 6 nM

row,Binder,Kd
1,B18,17.3 ± 2.7 nM
2,B19,42 ± 6 nM
3,B20,17 ± 6 nM
4,B21,18.2 ± 2.2 nM
5,B22,8.1 ± 1.4 nM
6,B23,10 ± 5 nM
7,B24,5.1 ± 1.1 nM
8,B25,4.3 ± 1.4 nM
9,B26,~18 nM
10,B27,6 ± 0.8 nM
11,B28,49 ± 4 nM
12,B29,~90 nM
13,B30,11.1 ± 2.5 nM
14,B31,66 ± 25 nM
15,B32,~90 nM
16,B33,7.4 ± 1.6 nM

# From PMC10786891, “Massively parallel profiling of RNA-targeting CRISPR-Cas13d”
